# Assay results from the nanobody polyreactivity screen of Harvey et al. (2022).
# Experiment: yeast display, Sf9 membrane polyspecificity reagent, FACS + sequencing; frameworks hold sequencing errors
# In short: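 Nanobodies from a synthetic yeast display library (Saccharomyces cerevisiae BJ5465), induced 36–48 hours with galactose, were stained 1 hour at 4 °C with 10% biotinylated, detergent-solubilized Sf9 membrane reagent, enriched on streptavidin microbeads, then FACS-sorted. Anti-HA (expression) and streptavidin (reagent binding) fluorescence set low and high (top ~1%) gates. Polyreactivity labels come from the gate of origin. Genes were colony-PCR amplified, MiSeq 2 × 250 sequenced and filtered by CDR length.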
row,Sequence,polyreactivity (PSR sort gate)
1,QVQLVESGGGLVQAGGSLRLSCAASGITFDAHAMGWYRQAPGKERELVARISSGGSTNYADSVKGRFTISRDNAKNTVYLQMNSLKPEDTAVYYCANSYLYGFDYWGQGTQVTVSS,low polyreactivity
2,QVQLVESGGGLVQAGGSLRLSCAASGITFDDYAMGWYRQAPGKERELVAAISVSGGDTYYADSVKGRFTISRDNAKNTVYLQMNSLKPEDSAVYYCAAEEVSPRWYDYWGLGTQVTVSS,low polyreactivity
3,QVQLVESGGGLVQAGGSLRLSCAASGITFDENTMGWYRQAPGKERELVAAITEIGGSTYYADSVKGRFTISRDNAKNTVYLQMNSLKPEDTAVYYCNAARWVVRFVDYEYWGQGTQVTVSS,low polyreactivity
4,QVQLVESGGGLVQAGGSLRLSCAASGITFDGYAMGWYRQAPGKETELVAANSWSGGRTYYADSVKGRFTISRDNAKNTVYLQMNSLKPEDTAVYYCGVYRRGVVYLLTSGVDYWGQGTQVTVSS,high polyreactivity
5,QVQLVESGGGLVQAGGSLRLSCAASGITFDGYDMGWYRQAPGKEREMVATIDSGGITYYADSVKGRFTISRDNAKNTVYLQMNSLKPEDTAVYYCNADEWYYNFDIVEFDYWGQGTQVTVSS,low polyreactivity
6,QVQLVESGGGLVQAGGSLRLSCAASGITFDHYAMGWYRQAPGKERELVAAITSGGNTNYADSVKGRFTISRDNAKNTVYLQMNSLKPEDTAVYYCNARYDVWYYYWGQGTQVTVSS,high polyreactivity
7,QVQLVESGGGLVQAGGSLRLSCAASGITFDIYAMGWYRQAPGKVRELVAAISGSDGSTYYADSVKGRFTISRDNAKNTVYLQMNSLKPEDTAVYYGAAESEYAGTYESDYWGLGTQVTVSS,low polyreactivity
8,QVQLVESGGGLVQAGGSLRLSCAASGITFDTYAMGWYRQAPGKERELVAAISKSGGSPYYADSVKARFTISRDNAKNTVYLQMNSLKPEDTAVNYCNARYRHSGRYWDWYYYWGQGTQVTVSS,high polyreactivity
9,QVQLVESGGGLVQAGGSLRLSCAASGITFDVNAMGWYRQAPGKERELVAAITAGGNTYYADSVKGRFTISRDNAKNTVYLQMNSLKPEDTAVYYCAAVSTSLYWAGYDYWGQGTQVTVSS,low polyreactivity
10,QVQLVESGGGLVQAGGSLRLSCAASGITFDYYAMGWYRQAPGKERELVAAIRSGGSTNYADSVKGRFTISRDNAKNTVYLQMNSLKPVDTAVYYCAAVRYYPWYDYWGQGTQVTVSS,high polyreactivity
11,QVQLVESGGGLVQAGGSLRLSCAASGITFDYYAMGWYRQAPGKERELVAAISGGDSTNYADSVKGRFTISRDNEKNTVYLQMNSLKPEDTAVYYCNVQYSGLYWSYRIDFDYWGQGTQVTVSS,high polyreactivity
12,QVQLVESGGGLVQAGGSLRLSCAASGITFDYYGMGWYRQAPGKEGELVASITSGGSTNYADSVNGRFTISRDNAKNTVYLQMNSLKPEDTAVYYCNAEFWEVSPDRRDYDYWGQGTQVTVSS,low polyreactivity
13,QVQLVESGGGLVQAGGSLRLSCAASGITFEDYAMGWYRQAPGKERELVAAITSNGGSTYYADSVKGRFTISRDNAKNTVYLQMNSLKPEDTAVYYCAATKYFSYYGRVSWADGGYWGQGTQVTVSS,low polyreactivity
14,QVQLVESGGGLVQAGGSLRLSCAASGITFEGYSMGWYRQAPGKERELVAAIRSSGTSTYYADSVKGRFTISRDNAKNTVYLQMNSLKPEDTAVYYCNRARSSSRYDYWGQGTQVTVSS,low polyreactivity
15,QVQLVESGGGLVQAGGSLRLSCAASGITFEPYAMGWDREAPGKEREFVSDNTWSGGSTYYADSVKSRFTISRDNANNTVYLQMNSLKPEDTAVYYCAADGWTSYWSDYWGQGTQVTVSS,low polyreactivity
16,QVQLVESGGGLVQAGGSLRLSCAASGITFERNAMGWYRQAPGKERELVAAITGRGTSTYADSVKGRFTISRDNAKNTVYLQMNSLKPEDTAVYYCAAVGWFADFLFSDINGYYWGQGTQVTVSS,low polyreactivity
17,QVQLVESGGGLVQAGGSLRLSCAASGITFERYVMGWYIQAPGKERELVASISRSGSTFYADSVKGRFTISRDNAKNTVYLQMNSLKPEDTAVYYCNADRFWFHWVYSRYHYDYWGQGTQVTVSS,high polyreactivity
18,QVQLVESGGGLVQAGGSLRLSCAASGITFEVNAMGWYRQAPGKERELVARISRDGSTNYADSVKGRFTISRDNAKNTVYLQRNSLKPEDTAVYYCNAKLYRSFDYWGQGTQVTVSS,low polyreactivity
19,QVQLVESGGGLVQAGGSLRLSCAASGITFEYYAMGWYRQAPGKERELVAAIDTGGSTNYADSVKGRFTISRDNAKNTVYLQMNSLKPEDTAVYYCTADGPSTPWVDYGYWGQGTQVTVSS,low polyreactivity
20,QVQLVESGGGLVQAGGSLRLSCAASGITFEYYAMGWYRQAPGKERELVAAISWSGSSTYYADSVKGRFTISRDNAKNTVYLQMNSLKPEDTAVYYCNADSSWWASDDQYDYWGQGTQVTVSS,low polyreactivity
21,QVQLVESGGGLVQAGGSLRLSCAASGITFFDYAMGWSRQAPGKERELVAAIDLSDGRTYYADSVKGRFTISRDNAKNTFYLQMNSLKPEDTAVYYCAAVSTSLYWAGYDYWGQGTQVTVSS,low polyreactivity
22,QVQLVESGGGLVQAGGSLRLSCAASGITFFENAMGWYRQAPGKERELVAAISYSGGNTYADSVKGRFTISRDNAKNTVYLQMNSLKPEDTAVYYCNADYAGWGEYDYWGQGTQVTVSS,low polyreactivity

row,Sequence,polyreactivity (PSR sort gate)
1,QVQLVESGGGLVQAGGSLRLSCAASGITFFEYAMGWYRQAPGKERELVAVITSGGSTNYADSVKGRFTISRDNAKNTVYLQMNSLKPEDTAVYYCNARVVKYRWWYDYYYWGQGTQVTVSS,low polyreactivity
2,QVQLVESGGGLVQAGGSLRLSCAASGITFFIYAMGWYRQAPGKQRELFAAIRSGGSTNYADSVKGRFTISRDNAQNTVYLQMNSLKPEDTSVFYCAADVYGTVRRVGWYYVGEGYDYWGQGTQVTVSS,low polyreactivity
3,QVQLVESGGGLVQAGGSLRLSCAASGITFFVYAMGWYRQAPGKERELVAAITSGDSTSYADSVKGRFTISRDNAKNTVYLQMNSLKPEDTAVYYCAAEQVTIEDGVYFDFNSWGQGTQVTVSS,low polyreactivity
4,QVQLVESGGGLVQAGGSLRLSCAASGITFFVYDMGWYRQAPGKERELVAAITWSGDSTYYADSVKGRFTISRDNAKNTVYLQMNSLKPEDTAVYYCAAQFDVYYSRQPYDYNRSGYWGQGTQVTVSS,low polyreactivity
5,QVQLVESGGGLVQAGGSLRLSCAASGITFGAYTMGWYRQAPGKERELVAAISRTGARTYYADSVKGRFTISRDNAKNTVYLQMNSLKPEDTAVYYCAAYRIGQYDYWGQGTQVTVSS,high polyreactivity
6,QVQLVESGGGLVQAGGSLRLSCAASGITFGDYAMGWDRQAPGKERELVAAISTSGVRTYYADSVKGRFTISRDNAKNTVYLQMNSLKPEDTAVYYCNARDYSGFQTGASAAFDYWGQGTQVTVSS,low polyreactivity
7,QVQLVESGGGLVQAGGSLRLSCAASGITFGGNAMGWYRQAPGKERELVAAISSSGGSTYYADSVKGRFTISRDNAKNTVYLQMNSLKPEDTAVYYCAARNRYPLRFYYWGQGTQVTVSS,high polyreactivity
8,QVQLVESGGGLVQAGGSLRLSCAASGITFGGYAMGWYRQAPGKERELVASIRSGSSTNYADSVKGRFTISRDNAKNTVYLQMNSLKPEDTAVYYCAARNFRNRYGYWGQGTQVTVSS,high polyreactivity
9,QVQLVESGGGLVQAGGSLRLSCAASGITFGPYAMGWYRQAPGKERELVAAITWGGGSTYYADSVKGRFTISRDNAKNTVYLQMNSLKPEDTAVYYCNAEGSTTSRYLPYDYWGQGTQVTVSS,low polyreactivity
10,QVQLVESGGGLVQAGGSLRLSCAASGITFGRNTMGWYRQAPGKERELVAAIRSGGSTNYADSVKGRFSISRDNAKNTVYLLMNSLKPEDPAVYYWNAQPWVRFWPYDYWGQGTQVTVSS,low polyreactivity
11,QVQLVESGGGLVQAGGSLRLSCAASGITFGSNAMGWYRQAPGKERELVAAINSGGTTTYADSVKGRFTISRDNAKNTVYLQMNSLKPEDTAVYYCAVSGGASYQFVGSPDTEHDYWGQGTQVTVSS,low polyreactivity
12,QVQLVESGGGLVQAGGSLRLSCAASGITFGTNAMGWYRQAPGKERELVAAISGGGGSTYYADSVKGRFTISRDNAKYTVYLQMTCLKPEDTAFYYCAARRFKRSSLSFYVGYYYWGQGTQVTVSS,high polyreactivity
13,QVQLVESGGGLVQAGGSLRLSCAASGITFGTYAMGWYRQAPGKERELDAAIDTSGDDTYYADSVKGRFTISRDNAKNTVYLQMNSLKPEDTAVYYCAADFPSAEVDYWGQGTQVTVSS,low polyreactivity
14,QVQLVESGGGLVQAGGSLRLSCAASGITFGVYALGWSRQARGNERELVAAISVNGGSTYYADSVKGRYTISRDNAKNTVYLQMNSLKPEDTAVYYCAADVLYYIDDDSIIEYDYWGQGTQVTVSS,low polyreactivity
15,QVQLVESGGGLVQAGGSLRLSCAASGITFGVYAMGWYRQAPGKERELVAAISWSVGSTYYADSVKGRFTISRDNAKNTVYLQMNSLKPEDTAVYYCAAYYGVGFDYWGQGTQVTVSS,high polyreactivity
16,QVQLVESGGGLVQAGGSLRLSCAASGITFGVYTMGWYRQAPGKEREFVAVISGRGGSTYYADSVKGRFTISRDNAKNTVYLQMNSLKPEDTAVYYCAADYYYIVDYWGQGTQVTVSS,high polyreactivity
17,QVQLVESGGGLVQAGGSLRLSCAASGITFGWYAMGWYRQAPGKERELVAAISWSGGTTYYADSVKGRFTISRDNAKNTVYLQMNSLKPEDTAVYYCAATWYYPTVYAGNYWGQGTQVTVSS,high polyreactivity
18,QVQLVESGGGLVQAGGSLRLSCAASGITFGYYAMGWSRQAPGKERELVAAIRSSGGSTYYADSVKGRFTISRDNAKNNVYLQMNSLKPEDTAVYYCNARYRKSSRPGYEPYERYYWGQGTQVTVSS,high polyreactivity
19,QVQLVESGGGLVQAGGSLRLSCAASGITFGYYARGGYRQAPGNERELVAAISRNGGSTYYADSVKGRFTISRDNAKNTVYLQMNSLKPEDTAVYYCNARGNQAVIGYEYWGQGTQVTVSS,high polyreactivity
20,QVQLVESGGGLVQAGGSLRLSCAASGITFHDNAMGWYRQAPGKERELVAVITRRGGRTYYADSVKGRFTISRDNAKNTVYLQMNSLKPEDTAVYYCAAYYDYTHRFYYWGQGTQVTVSS,high polyreactivity
21,QVQLVESGGGLVQAGGSLRLSCAASGITFHGYAMGWYRQAPGKERELVAAISDSGSSTYYADSVKGRFTISRDNAKNTVYLQMNSLKPEDTAVYYCAAVSGFYDQYDYWGQGTQVTVSS,low polyreactivity
